Results: US11932673 (IONTAS, dated 2024)

B1: KB_A07_ProTx-III 2M Gly (antibody, V domains shown)
VH: EVQLVESGGGLVRPGGSLRLSCAASGFTFSSYAMSWVRQAPGKGLEWVSAISGSGGSTYYADSVKGRFTISRDNTKNSLYLQMTSLRADDTAFYYCVKDFGPGYGTGWFDYWGPGTLVTVSS
VL: […]
B2: KB_A12_ProTx-III 2M Gly (antibody, V domains shown)
VH: B1 VH
VL: VNWYQQLPGKAPKLLIYAAGRGCLKFGWKCNPRNDKCCSGLKCGSNHNWCKWHIGANSGVSDRFSAAKSGTSASLAINGLRSEDEADYYCAAWDDSLNGYVFGTGTKLTVLG
B3: KB_A12_ProTx-III 2M 2Gly (antibody, V domains shown)
VH: B1 VH
VL: VNWYQQLPGKAPKLLIYAAGRGCLKFGWKCNPRNDKCCSGLKCGSNHNWCKWHIGGANSGVSDRFSAAKSGTSASLAINGLRSEDEADYYCAAWDDSLNGYVFGTGTKLTVLG
B4: KB_A07 (scFv, V domains shown)
VH: B1 VH
VL: YLNWYQQKPGKAPKLLIYAAGVCPRILMRCKQDSDCLAGCVCGPNGFCGSRSGVPSRFSGSGSGTDFTLTISSLQPEDFATYYCQQGASPPYTFGQGTKVEIKR
B5: KB_A07 MoKa-1 (antibody, V domains shown)
VH: B1 VH
VL: DIQMTQSPSSLSASVGDRVTITCRASQSISSYLNWYQQKPGKAPKLLIYAAGVINVKCSLPQQCIKPCKDAGMRFGKCMNKKCRCYSSRSGVPSRFSGSGSGTDFTLTISSLQPEDFATYYCQQGASPPYTFGQGTKVEIKR
B6: KB_A12 MoKa-1 (antibody, V domains shown)
VH: B1 VH
VL: QSVLTQPPSVSEAPRQRVTITCSGSSSNIGNNAVNWYQQLPGKAPKLLIYAAGRINVKCSLPQQCIKPCKDAGMRFGKCMNKKCRCYSANSGVSDRFSAAKSGTSASLAINGLRSEDEADYYCAAWDDSLNGYVFGTGTKLTVLG
B7: KB_A12 Kaliotoxin (antibody, V domains shown)
VH: B1 VH
VL: QSVLTQPPSVSEAPRQRVTITCSGSSSNIGNNAVNWYQQLPGKAPKLLIYAAGRGVEINVKCSGSPQCLKPCKDAGMRFGKCMNRKCHCTPKANSGVSDRFSAAKSGTSASLAINGLRSEDEADYYCAAWDDSLNGYVFGTGTKLTVLG
B8: KB_A12 (scFv, V domains shown)
VH: B1 VH
VL: AVNWYQQLPGKAPKLLIYAAGRCPRILMRCKQDSDCLAGCVCGPNGFCGANSGVSDRFSAAKSGTSASLAINGLRSEDEADYYCAAWDDSLNGYVFGTGTKLTVLG
B9: KB_A07 Shk (antibody, V domains shown)
VH: B1 VH
VL: NWYQQKPGKAPKLLIYAAGVRSCIDTIPKSRCTAFQCKHSMKYRLSFCRKTCGTCSRSGVPSRFSGSGSGTDFTLTISSLQPEDFATYYCQQGASPPYTFGQGTKVEIKR
B10: KB_A07 Kaliotoxin (antibody, V domains shown)
VH: B1 VH
VL: DIQMTQSPSSLSASVGDRVTITCRASQSISSYLNWYQQKPGKAPKLLIYAAGVGVEINVKCSGSPQCLKPCKDAGMRFGKCMNRKCHCTPKSRSGVPSRFSGSGSGTDFTLTISSLQPEDFATYYCQQGASPPYTFGQGTKVEIKR
B11: KB_A12 Shk (antibody, V domains shown)
VH: B1 VH
VL: NWYQQLPGKAPKLLIYAAGRRSCIDTIPKSRCTAFQCKHSMKYRLSFCRKTCGTCANSGVSDRFSAAKSGTSASLAINGLRSEDEADYYCAAWDDSLNGYVFGTGTKLTVLG

Biological target: T1, human Nav1.7 (human, UniProt Q15858 1-1988)
T1 sequence (Q15858 whole entry): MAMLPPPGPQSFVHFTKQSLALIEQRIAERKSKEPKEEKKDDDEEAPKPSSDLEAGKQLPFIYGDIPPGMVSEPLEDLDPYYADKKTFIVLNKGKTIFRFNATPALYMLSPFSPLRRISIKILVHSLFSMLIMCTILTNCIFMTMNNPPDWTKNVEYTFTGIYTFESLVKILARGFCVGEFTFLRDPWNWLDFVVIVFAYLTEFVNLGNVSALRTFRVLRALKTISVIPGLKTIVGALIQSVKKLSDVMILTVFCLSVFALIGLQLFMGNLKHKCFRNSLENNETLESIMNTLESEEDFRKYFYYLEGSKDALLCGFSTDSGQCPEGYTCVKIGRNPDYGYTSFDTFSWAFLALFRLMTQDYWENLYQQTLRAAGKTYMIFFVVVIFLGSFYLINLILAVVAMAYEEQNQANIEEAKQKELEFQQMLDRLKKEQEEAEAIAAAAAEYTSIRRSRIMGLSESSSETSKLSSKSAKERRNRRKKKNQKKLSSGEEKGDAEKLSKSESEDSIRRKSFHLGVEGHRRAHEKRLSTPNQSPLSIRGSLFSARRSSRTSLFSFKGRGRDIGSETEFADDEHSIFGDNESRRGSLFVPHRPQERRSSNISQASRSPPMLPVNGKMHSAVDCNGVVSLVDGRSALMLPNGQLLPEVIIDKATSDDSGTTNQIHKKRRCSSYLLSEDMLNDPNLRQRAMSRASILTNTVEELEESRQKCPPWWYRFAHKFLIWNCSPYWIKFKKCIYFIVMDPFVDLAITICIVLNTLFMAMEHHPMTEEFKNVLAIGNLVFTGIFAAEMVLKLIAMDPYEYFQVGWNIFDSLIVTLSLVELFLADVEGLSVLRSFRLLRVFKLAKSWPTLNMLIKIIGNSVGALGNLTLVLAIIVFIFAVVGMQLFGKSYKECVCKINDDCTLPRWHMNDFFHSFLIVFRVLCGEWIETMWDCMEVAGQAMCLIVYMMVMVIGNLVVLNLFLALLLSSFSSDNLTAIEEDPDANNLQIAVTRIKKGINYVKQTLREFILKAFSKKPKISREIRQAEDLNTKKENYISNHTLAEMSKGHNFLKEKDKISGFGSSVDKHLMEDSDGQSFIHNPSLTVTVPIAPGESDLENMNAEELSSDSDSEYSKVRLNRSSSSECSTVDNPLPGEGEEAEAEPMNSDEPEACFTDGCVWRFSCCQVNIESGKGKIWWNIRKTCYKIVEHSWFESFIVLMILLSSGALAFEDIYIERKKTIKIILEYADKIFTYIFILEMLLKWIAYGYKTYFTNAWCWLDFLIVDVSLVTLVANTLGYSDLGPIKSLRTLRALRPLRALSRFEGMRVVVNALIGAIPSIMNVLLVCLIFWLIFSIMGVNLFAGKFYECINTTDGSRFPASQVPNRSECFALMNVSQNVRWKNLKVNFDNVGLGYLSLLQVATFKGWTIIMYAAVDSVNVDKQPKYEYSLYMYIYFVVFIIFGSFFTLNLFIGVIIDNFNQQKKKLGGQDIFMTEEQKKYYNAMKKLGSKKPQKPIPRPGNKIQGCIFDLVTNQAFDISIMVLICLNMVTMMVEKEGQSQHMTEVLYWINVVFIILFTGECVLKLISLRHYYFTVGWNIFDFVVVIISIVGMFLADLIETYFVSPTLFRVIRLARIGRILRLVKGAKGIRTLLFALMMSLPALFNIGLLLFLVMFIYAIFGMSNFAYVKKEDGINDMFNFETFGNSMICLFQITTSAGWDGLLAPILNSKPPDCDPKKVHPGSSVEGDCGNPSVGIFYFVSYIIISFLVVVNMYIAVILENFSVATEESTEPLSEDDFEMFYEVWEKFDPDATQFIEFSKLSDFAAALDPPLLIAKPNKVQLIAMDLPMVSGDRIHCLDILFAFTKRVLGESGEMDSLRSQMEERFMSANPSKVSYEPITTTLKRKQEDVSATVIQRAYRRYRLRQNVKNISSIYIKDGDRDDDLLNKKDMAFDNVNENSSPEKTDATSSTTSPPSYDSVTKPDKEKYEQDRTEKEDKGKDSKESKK
Experiment: cell-based or functional assay

| Binder | IC50 of inhibition of Nav1.7 currents, QPatch, CHO cells |
| --- | --- |
| B1 | 1100 nM |
| B2 | 1500 nM |
| B3 | 1400 nM |

Biological target: T2, human Kv 1.3 (human, UniProt P22001 1-575)
T2 sequence (P22001 whole entry): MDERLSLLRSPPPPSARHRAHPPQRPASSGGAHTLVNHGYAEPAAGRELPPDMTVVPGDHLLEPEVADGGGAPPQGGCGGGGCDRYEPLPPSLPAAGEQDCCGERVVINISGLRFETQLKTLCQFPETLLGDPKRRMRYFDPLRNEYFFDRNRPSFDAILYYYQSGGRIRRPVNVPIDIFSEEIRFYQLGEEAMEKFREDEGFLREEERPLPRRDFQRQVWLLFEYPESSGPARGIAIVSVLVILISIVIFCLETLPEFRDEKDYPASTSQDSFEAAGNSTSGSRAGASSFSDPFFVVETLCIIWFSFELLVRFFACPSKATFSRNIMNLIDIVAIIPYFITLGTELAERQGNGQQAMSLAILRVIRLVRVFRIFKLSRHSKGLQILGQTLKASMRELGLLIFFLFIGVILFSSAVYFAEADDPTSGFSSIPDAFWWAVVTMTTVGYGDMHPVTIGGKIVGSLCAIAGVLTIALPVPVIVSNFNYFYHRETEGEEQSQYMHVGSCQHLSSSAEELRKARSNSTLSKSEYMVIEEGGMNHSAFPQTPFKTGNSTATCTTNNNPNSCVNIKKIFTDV
Experiment: cell-based or functional assay

| Binder | IC50 of inhibition of huKv1.3 currents (extrapolated) |
| --- | --- |
| B4 | > 10000 nM |
| B5 | > 10000 nM |
| B6 | > 10000 nM |
| B7 | > 10000 nM |
| B8 | > 10000 nM |

Biological target: T1, human Nav1.7
Experiment: cell-based or functional assay
Remark: another data set of the same source

| Binder | IC50 of inhibition of Nav1.7 currents (extrapolated; IgG isotype control) |
| --- | --- |
| B8 | > 100000 nM |

Biological target: T2, human Kv 1.3
Experiment: cell-based or functional assay
Remark: another data set of the same source

| Binder | IC50 of inhibition of huKv1.3 currents, QPatch whole-cell patch clamp, CHO cells |
| --- | --- |
| B9 | 40 nM |
| B10 | 900 nM |
| B11 | 20 nM |
